In this assay the target is Aplysia californica acetylcholine binding protein (Aplysia californica). The experiment in a line: cross-linking.

“Aplysia californica acetylcholine binding protein (natural protein)” registered a stoichiometry N of 5.

As usually defined, the stoichiometry N is the number of molecules, sites or subunits per partner or assembly.

For the origin of these results see PMC11157483.
